Results: article PMC7246905, “Exploring the Enzymatic and Antibacterial Activities of Novel Mycobacteriophage Lysin B Enzymes” (International Journal of Molecular Sciences, 2020)
Read-outs that look alike come from different tables or passages of the source.

Columns and labels:
Conditions in all cases: 20 mM Tris-HCl, 100 mM NaCl, 0.1% Triton X-100, pH 8, 37 °C
LysB-Obama12 (LysB-His6) = assay: p-nitrophenol release at […] nm, Michaelis-Menten; type: biochemical, Mycobacterium phage Obama12
purified protein [1] = substrate: CCCCCCCC(=O)Oc1ccc([N+](=O)[O-])cc1; assay: purified protein; type: biochemical, Fromanvirus D29
purified protein [2] = substrate: CCCCCCCCCCCCCC(=O)Oc1ccc([N+](=O)[O-])cc1; assay: purified protein; type: biochemical, Fromanvirus D29
purified protein [3] = substrate: CCCCCCCCCCCC(=O)Oc1ccc([N+](=O)[O-])cc1; assay: purified protein; type: biochemical, Fromanvirus D29
purified protein [4] = substrate: CCCCCCCCCCCCCCCC(=O)Oc1ccc([N+](=O)[O-])cc1; assay: purified protein; type: biochemical, Fromanvirus D29
purified protein [5] = substrate: CCCC(=O)Oc1ccc([N+](=O)[O-])cc1; assay: purified protein; type: biochemical, Fromanvirus D29
purified protein [6] = substrate: CCCCCCCC(=O)Oc1ccc([N+](=O)[O-])cc1; assay: purified protein; type: biochemical, Mycobacterium phage Omega
purified protein [7] = substrate: CCCCCCCCCCCCCC(=O)Oc1ccc([N+](=O)[O-])cc1; assay: purified protein; type: biochemical, Mycobacterium phage Omega
purified protein [8] = substrate: CCCCCCCCCCCC(=O)Oc1ccc([N+](=O)[O-])cc1; assay: purified protein; type: biochemical, Mycobacterium phage Omega
purified protein [9] = substrate: CCCCCCCCCCCCCCCC(=O)Oc1ccc([N+](=O)[O-])cc1; assay: purified protein; type: biochemical, Mycobacterium phage Omega
purified protein [10] = substrate: CCCC(=O)Oc1ccc([N+](=O)[O-])cc1; assay: purified protein; type: biochemical, Mycobacterium phage Omega
purified protein [11] = substrate: CCCCCCCC(=O)Oc1ccc([N+](=O)[O-])cc1; assay: purified protein; type: biochemical, Mycobacterium phage Saal
purified protein [12] = substrate: CCCCCCCCCCCCCC(=O)Oc1ccc([N+](=O)[O-])cc1; assay: purified protein; type: biochemical, Mycobacterium phage Saal
purified protein [13] = substrate: CCCCCCCCCCCC(=O)Oc1ccc([N+](=O)[O-])cc1; assay: purified protein; type: biochemical, Mycobacterium phage Saal
purified protein [14] = substrate: CCCCCCCCCCCCCCCC(=O)Oc1ccc([N+](=O)[O-])cc1; assay: purified protein; type: biochemical, Mycobacterium phage Saal
purified protein [15] = substrate: CCCC(=O)Oc1ccc([N+](=O)[O-])cc1; assay: purified protein; type: biochemical, Mycobacterium phage Saal

## CCCCCCCCCCCCCC(=O)Oc1ccc([N+](=O)[O-])cc1 [p-nitrophenyl myristate]
LysB-Obama12 (LysB-His6); read-out: pNPM (C14)
  Km: 1270 ± 86.4 µM

## CCCC(=O)Oc1ccc([N+](=O)[O-])cc1 [p-nitrophenyl butyrate]
LysB-Obama12 (LysB-His6); read-out: pNPB (C4)
  Km: 1270 ± 60 µM

## CCCCCCCCCCCCCCCC(=O)Oc1ccc([N+](=O)[O-])cc1 [p-nitrophenyl palmitate]
LysB-Obama12 (LysB-His6); read-out: pNPP (C16)
  Km: 800 ± 22.1 µM

## CCCCCCCCCCCC(=O)Oc1ccc([N+](=O)[O-])cc1 [p-nitrophenyl laurate]
LysB-Obama12 (LysB-His6); read-out: pNPL (C12)
  Km: 3000 ± 20.1 µM

## CCCCCCCC(=O)Oc1ccc([N+](=O)[O-])cc1 [p-nitrophenyl octanoate]
LysB-Obama12 (LysB-His6); read-out: pNPO (C8)
  Km: 2670 ± 46.5 µM

B1: LysB-D29 (LysB-His6) (Fromanvirus D29) (protein)
chain: MSKPWLFTVHGTGQPDPLGPGLPADTARDVLDIYRWQPIGNYPAAAFPMWPSVEKGVAELILQIELKLDADPYADFAMAGYSQGAIVVGQVLKHHILPPTGRLHRFLHRLKKVIFWGNPMRQKGFAHSDEWIHPVAAPDTLGILEDRLENLEQYGFEVRDYAHDGDMYASIKEDDLHEYEVAIGRIVMKASGFIGGRDSVVAQLIELGQRPITEGIALAGAIIDALTFFARSRMGDKWPHLYNRYPAVEFLRQI
Purified protein [1]
  Km: 42.3 ± 0.445 µM
  Vmax: 9.85 µmol/min/mg
  kcat: 0.961 ± 0.213 s⁻¹
  kcat/Km: 22700 ± 723 M⁻¹ s⁻¹
Purified protein [2]
  Km: 24.08 ± 0.505 µM
  Vmax: 3 µmol/min/mg
  kcat: 0.294 ± 0.0159 s⁻¹
  kcat/Km: 12200 ± 512 M⁻¹ s⁻¹
Purified protein [3]
  Km: 19.6 ± 3.094 µM
  Vmax: 7.55 µmol/min/mg
  kcat: 0.738 ± 0.026 s⁻¹
  kcat/Km: 37700 ± 6030 M⁻¹ s⁻¹
Purified protein [4]
  Km: 37.7 ± 7.134 µM
  Vmax: 2.73 µmol/min/mg
  kcat: 0.242 ± 0.0168 s⁻¹
  kcat/Km: 6330 ± 783 M⁻¹ s⁻¹
Purified protein [5]
  Km: 422.6 ± 29.4 µM
  Vmax: 122 µmol/min/mg
  kcat: 11.9 ± 0.187 s⁻¹
  kcat/Km: 28300 ± 6130 M⁻¹ s⁻¹

B2: LysB-Omega (LysB-His6) (Mycobacterium phage Omega) (protein)
chain: MSLWPEIRAMLNGEFYVPAGTIITANGTGVPDGAGPGFGADLARELERVAEGMWIWKWINYPAAVMPMRPSINTLRLALKEMIRTTPGKIVLSAYSQSAVAFAYVWRDDILNPDGELHDRLDDIVAVILYGNPVRAPGIAYGNELGGQSAPGKLNGHVTGGIAGPDCLRPEECVHPVTGRRIVLDFANAGDLYAAAPVGAEPWVKETEVGHNETLIYEAVMDFNGRDILAFAKEIAQILTMPLSQVVPLVQAIINGLSFLVQGPKAPHWTYTIGPAVDYLVRTGNELRKN
Purified protein [6]
  Km: 193.3 ± 2.258 µM
  Vmax: 15.7 µmol/min/mg
  kcat: 7.54 ± 0.165 s⁻¹
  kcat/Km: 39000 ± 6070 M⁻¹ s⁻¹
Purified protein [7]
  Km: 98.72 ± 5.292 µM
  Vmax: 22.3 µmol/min/mg
  kcat: 2.35 ± 0.0785 s⁻¹
  kcat/Km: 23800 ± 783 M⁻¹ s⁻¹
Purified protein [8]
  Km: 280.8 ± 3.26 µM
  Vmax: 79.8 µmol/min/mg
  kcat: 8.4 ± 0.339 s⁻¹
  kcat/Km: 40200 ± 2260 M⁻¹ s⁻¹
Purified protein [9]
  Km: 24.4 ± 3.116 µM
  Vmax: 1.45 µmol/min/mg
  kcat: 0.152 ± 0.0184 s⁻¹
  kcat/Km: 6230 ± 4950 M⁻¹ s⁻¹
Purified protein [10]
  Km: 618.8 ± 24.98 µM
  Vmax: 112 µmol/min/mg
  kcat: 11.7 ± 0.313 s⁻¹
  kcat/Km: 19000 ± 733 M⁻¹ s⁻¹

B3: LysB-Saal (LysB-His6) (Mycobacterium phage Saal) (protein)
chain: MRIDGQYVGLGLGDSSDEIRKIKAFMRRKFASYAGDLADTPLYDEAMTAAVAEMQARYSAAGQLRAGLYIPGIVGAETKYVMGYLPRPVVDTRPVLITVCGTGVPWWIGPDADTARAVEDKYLWQPIGYPAAPFPMGKSIAAAITETHNQANRWRERIETHGAALAGYSQGAVVVSELWMNHIAPEDGSLHWMKPHIEKAVTWGNPNRELGHVWADHGGSPRAPSNTQGVSSNGMRDTPPWWRDYAHQGDLYACTEPGDTQEVRNAIWQIVRDLDLFTGPDSLLAQVVELVQAPLPEAIAITKALLDAGMFFAKRTGPHVDYNVQPAIDYLRT
Purified protein [11]
  Km: 1519.25 ± 38.596 µM
  kcat/Km: 20300 ± 230 M⁻¹ s⁻¹
Purified protein [12]
  Km: 956.7 ± 12.93 µM
  kcat/Km: 54000 ± 3520 M⁻¹ s⁻¹
Purified protein [13]
  Km: 1476.39 ± 33.184 µM
  kcat/Km: 71800 ± 3350 M⁻¹ s⁻¹
Purified protein [14]
  Km: 2833.32 ± 40.824 µM
  kcat/Km: 19700 ± 2420 M⁻¹ s⁻¹
Purified protein [15]
  Km: 4172.12 ± 20.104 µM
  kcat/Km: 44700 ± 7630 M⁻¹ s⁻¹
